Experiment [1] concerns the target FITC-Labeled human CD19 protein (ACROBiosystem, Cat-CD9-HF251) (human) (UniProt P15391). Put plainly: flow cytometry, ND539 CAR T cells day 9; CD19-FITC protein premixed with anti-CD19 PE (FMC63 clone) 1:1; PE signal read on the cells that hold CD19-FITC by their CAR; competitor CAR-FMC63 (untransduced 2.25). (In flow cytometry, cells or beads pass a laser one at a time.)

Experiment [2] shares this target. Description: flow cytometry, ND539 CAR T cells day 9; CD19-FITC protein premixed with anti-CD19 PE (FMC63 clone) 1:3; PE signal read on the cells that hold CD19-FITC by their CAR; competitor CAR-FMC63 (untransduced 2.95).
The target is the same in experiment [3]. Description: flow cytometry, ND539 CAR T cells day 9; CD19-FITC protein premixed with anti-CD19 PE (FMC63 clone) 1:1; PE signal read on the cells that hold CD19-FITC by their CAR; competitor CD19 CAR 42 (untransduced 2.25).
For experiment [4] the target is unchanged. Description: flow cytometry, ND539 CAR T cells day 9; CD19-FITC protein premixed with anti-CD19 PE (FMC63 clone) 1:1; PE signal read on the cells that hold CD19-FITC by their CAR; competitor CD19 CAR 43 (untransduced 2.25).
Experiment [5] has the same target. Description: flow cytometry, ND539 CAR T cells day 9; CD19-FITC protein premixed with anti-CD19 PE (FMC63 clone) 1:1; PE signal read on the cells that hold CD19-FITC by their CAR; competitor CD19 CAR 44 (untransduced 2.25).
The target is the same in experiment [6]. Description: flow cytometry, ND539 CAR T cells day 9; CD19-FITC protein premixed with anti-CD19 PE (FMC63 clone) 1:1; PE signal read on the cells that hold CD19-FITC by their CAR; competitor CD19 CAR 45 (untransduced 2.25).
For experiment [7] the target is unchanged. Description: flow cytometry, ND539 CAR T cells day 9; CD19-FITC protein premixed with anti-CD19 PE (FMC63 clone) 1:1; PE signal read on the cells that hold CD19-FITC by their CAR; competitor CD19 CAR 46 (untransduced 2.25).
Experiment [8] has the same target. Description: flow cytometry, ND539 CAR T cells day 9; CD19-FITC protein premixed with anti-CD19 PE (FMC63 clone) 1:1; PE signal read on the cells that hold CD19-FITC by their CAR; competitor CD19 CAR 52 (untransduced 2.25).
Experiment [9] shares this target. Put plainly: flow cytometry, ND539 CAR T cells day 9; CD19-FITC protein premixed with anti-CD19 PE (FMC63 clone) 1:3; PE signal read on the cells that hold CD19-FITC by their CAR; competitor CD19 CAR 42 (untransduced 2.95).
Experiment [10] has the same target. Description: flow cytometry, ND539 CAR T cells day 9; CD19-FITC protein premixed with anti-CD19 PE (FMC63 clone) 1:3; PE signal read on the cells that hold CD19-FITC by their CAR; competitor CD19 CAR 43 (untransduced 2.95).
Experiment [11] has the same target. Description: flow cytometry, ND539 CAR T cells day 9; CD19-FITC protein premixed with anti-CD19 PE (FMC63 clone) 1:3; PE signal read on the cells that hold CD19-FITC by their CAR; competitor CD19 CAR 44 (untransduced 2.95).
Experiment [12] has the same target. Description: flow cytometry, ND539 CAR T cells day 9; CD19-FITC protein premixed with anti-CD19 PE (FMC63 clone) 1:3; PE signal read on the cells that hold CD19-FITC by their CAR; competitor CD19 CAR 45 (untransduced 2.95).
Experiment [13] shares this target. Put plainly: flow cytometry, ND539 CAR T cells day 9; CD19-FITC protein premixed with anti-CD19 PE (FMC63 clone) 1:3; PE signal read on the cells that hold CD19-FITC by their CAR; competitor CD19 CAR 46 (untransduced 2.95).
For experiment [14] the target is unchanged. Description: flow cytometry, ND539 CAR T cells day 9; CD19-FITC protein premixed with anti-CD19 PE (FMC63 clone) 1:3; PE signal read on the cells that hold CD19-FITC by their CAR; competitor CD19 CAR 52 (untransduced 2.95).
Experiment [15] concerns the target Human CD19, wild-type full-length protein expressed on cells (human) (UniProt P15391). Description: high-throughput flow cytometry, HEK-293T cells with WT CD19 vs vector, at 0.25 ug/ml.
Experiment [16] has the same target. Description: high-throughput flow cytometry, HEK-293T cells transfected with WT CD19; mean of four replicates; empty vector 0.
The target in experiment [17] is T1, Human CD19, wild-type full-length protein expressed on cells (human, UniProt P15391 20-556).
T1 construct: also called WT CD19; CD19 wild type protein
T1 sequence: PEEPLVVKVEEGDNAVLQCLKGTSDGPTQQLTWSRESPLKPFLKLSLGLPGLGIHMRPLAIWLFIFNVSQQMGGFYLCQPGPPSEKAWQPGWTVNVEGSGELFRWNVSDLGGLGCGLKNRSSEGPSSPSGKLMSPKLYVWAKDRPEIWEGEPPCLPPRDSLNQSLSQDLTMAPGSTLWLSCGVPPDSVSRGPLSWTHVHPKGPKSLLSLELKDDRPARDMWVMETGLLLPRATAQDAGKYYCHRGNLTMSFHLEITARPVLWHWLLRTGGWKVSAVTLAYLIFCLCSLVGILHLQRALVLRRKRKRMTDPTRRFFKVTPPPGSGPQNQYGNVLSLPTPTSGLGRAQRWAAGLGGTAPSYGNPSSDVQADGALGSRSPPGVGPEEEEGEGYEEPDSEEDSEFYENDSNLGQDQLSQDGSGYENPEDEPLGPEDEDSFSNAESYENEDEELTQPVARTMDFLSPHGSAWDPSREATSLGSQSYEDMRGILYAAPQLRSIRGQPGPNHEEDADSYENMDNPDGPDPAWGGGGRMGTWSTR
Put plainly: scFv clone screen on NALM6 cells with and without CD19.
Description: To ensure that the up to (30) clones could recognize native CD19 expressed on tumor cells, the clones (scFv) were also screened against NALM6 tumor cell line positive (+) CD19 expression (NALM6 cell line⁺ CD19). CD19 knockout Nalm6 cell line (NALM6 cell line⁻ CD1; or CD19KO Nalm6 cell line) were used as a negative control for the selection. CD19KO Nalm6 cell lines used for the screen were engineered CRISPR knocked-out (KO) Nalm6-CD19KO cells. Clones that bound CD19⁺ NALM6 tumor cells, but not CD19-NALM6 tumor cells (CD19KO) were selected (Step 4).

Experiment [18] deals with T2, SIGLEC 7 (UniProt Q9Y286 19-357, limits assumed).
T2 construct: Counter-screen reagent of Step 3
T2 sequence (Q9Y286 19-357 limits assumed): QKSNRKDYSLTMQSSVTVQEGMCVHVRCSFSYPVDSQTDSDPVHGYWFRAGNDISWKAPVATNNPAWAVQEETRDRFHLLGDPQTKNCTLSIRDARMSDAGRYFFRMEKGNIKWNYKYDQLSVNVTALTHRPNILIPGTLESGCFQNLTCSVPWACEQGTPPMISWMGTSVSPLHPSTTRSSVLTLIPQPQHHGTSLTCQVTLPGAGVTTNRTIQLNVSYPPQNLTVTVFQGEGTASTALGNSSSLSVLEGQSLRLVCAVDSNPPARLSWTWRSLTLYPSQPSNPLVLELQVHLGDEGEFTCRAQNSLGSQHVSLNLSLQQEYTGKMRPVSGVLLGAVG
Description: counter-screen of the scFv clones against SIGLEC (Step 3). (The purpose of a counterscreen is to sort out artefacts and off-target activity.)

Experiment [19] deals with T3, SIGLEC 8 (UniProt Q9NYZ4 17-363, limits assumed).
T3 construct: Counter-screen reagent of Step 3
T3 sequence (Q9NYZ4 17-363 limits assumed): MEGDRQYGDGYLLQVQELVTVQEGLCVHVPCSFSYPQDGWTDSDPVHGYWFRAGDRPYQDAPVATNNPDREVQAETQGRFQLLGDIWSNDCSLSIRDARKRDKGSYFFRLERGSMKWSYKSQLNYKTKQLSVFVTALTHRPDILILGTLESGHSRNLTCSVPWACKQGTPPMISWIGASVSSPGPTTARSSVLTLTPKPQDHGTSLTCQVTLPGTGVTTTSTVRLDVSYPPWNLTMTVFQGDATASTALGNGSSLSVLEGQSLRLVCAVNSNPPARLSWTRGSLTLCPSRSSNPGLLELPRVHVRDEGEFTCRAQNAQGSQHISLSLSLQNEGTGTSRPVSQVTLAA
Described as above.

Experiment [20] addresses T4, SIGLEC 9 (UniProt Q9Y336 18-348, limits assumed).
T4 construct: Counter-screen reagent of Step 3
Described as above.

T4 sequence (Q9Y336 18-348 limits assumed): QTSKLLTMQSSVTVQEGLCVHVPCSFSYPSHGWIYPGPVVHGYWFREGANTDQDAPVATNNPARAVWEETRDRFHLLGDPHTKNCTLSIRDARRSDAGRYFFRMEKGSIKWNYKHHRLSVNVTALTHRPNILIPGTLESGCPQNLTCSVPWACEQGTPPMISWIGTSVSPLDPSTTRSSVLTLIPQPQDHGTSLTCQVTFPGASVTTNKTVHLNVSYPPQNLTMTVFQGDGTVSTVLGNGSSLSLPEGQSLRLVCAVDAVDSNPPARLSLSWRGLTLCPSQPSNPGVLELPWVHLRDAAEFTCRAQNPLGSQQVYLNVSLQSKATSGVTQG

Consider Anti CD19 (FMC63 Clone)-PE (antibody), for which the Gated for Anti-CD19 PE Expression in [1] is 0.8 mfi; in [2], 1.63 mfi; in experiment [3], 0.045 mfi; in experiment [4], 0.041 mfi; in experiment [5], 1.73 mfi; in experiment [6], 15.9 mfi. The Gated for Anti-CD19 PE Expression in experiment [7] is 0.12 mfi; in [8] it was 3.29 mfi; in [9], 0.48 mfi; in [10], 0.97 mfi; in experiment [11], 1.26 mfi; in experiment [12], 18.1 mfi. The Gated for Anti-CD19 PE Expression came to 0.78 mfi in [13] and 2.35 mfi in [14].
Consider “HIB19 monoclonal antibody (BioLegend, Cat no. 302202)”, for which the Signal:Background in experiment [15] stood at 50. For the same molecule, in [16], the mfi at 0.125 ug/ml turned out to be 500000 mfi, the mfi at 0.250 ug/ml amounted to 750000 mfi, the mfi at 0.500 ug/ml worked out at 1.25e+06 mfi and the mfi at 1.000 ug/ml worked out at 1.75e+06 mfi. In [16], the mfi at 2.000 ug/ml is 1.75e+06 mfi and the mfi at 4.000 ug/ml amounted to 2e+06 mfi.

B1: CD19 E7 scFv (P4) (scFv)
scFv: DIQMTQSPSSLSASVGDRVTITCRASQDITRYLNWYQQKPGKAPKLLIYAASSLQSGVPSRFSGSGSGTDFTLTISSLQPEDFATYYCQQSYSYPPTFGQGTKVEIKGGGGSGGGGSGGGGSQVQLVESGGGVVQPGRSLRLSCAASGFTFRDYGMHWVRQAPGKGLEWVAVISYEGSNEYYADSVKGRFTISRDNSKNTLYLQMNSLRAEDTAVYYCARDRGFAGWYDYAFDPWGQGTLVTVSS
notes: also called 45; clone 45
In the case of B1, the binding result is “binds” in [17], “no binding” in experiment [18], “no binding” in experiment [19] and “no binding” in experiment [20].

Values taken from patent publication US20240123068A1 (KITE PHARMA, published 2024).
